{"source": "paper PMC5628404", "about": "“Central catalytic domain of BRAP (RNF52) recognizes the types of ubiquitin chains and utilizes oligo-ubiquitin for ubiquitylation” (Biochemical Journal, 2017)", "binders": {"B1": {"name": "BRAP (124–569) (RNF52 domain) (domain or fragment, human, UniProt Q7Z569 124-569, looked up)", "chain": "DQISFFSGNPSVEIVHGIMHLYKTNKMTSLKEDVRRSAMLCILTVPAAMTSHDLMKFVAPFNEVIEQMKIIRDSTPNQYMVLIKFRAQADADSFYMTCNGRQFNSIEDDVCQLVYVERAEVLKSEDGASLPVMDLTELPKCTVCLERMDESVNGILTTLCNHSFHSQCLQRWDDTTCPVCRYCQTPEPVEENKCFECGVQENLWICLICGHIGCGRYVSRHAYKHFEETQHTYAMQLTNHRVWDYAGDNYVHRLVASKTDGKIVQYECEGDTCQEEKIDALQLEYSYLLTSQLESQRIYWENKIVRIEKDTAEEINNMKTKFKETIEKCDNLEHKLNDLLKEKQSVERKCTQLNTKVAKLTNELKEEQEMNKCLRANQVLLQNKLKEEERVLKETCDQKDLQITEIQEQLRDVMFYLETQQKINHLPAETRQEIQEGQINIAMASA", "notes": "The construct had the tag, a TEV site and a GSSGSSG linker at the N-terminus; after TEV cleavage the linker probably stays on the protein (surmised); also called RNF52 domain of BRAP; central catalytic domain of BRAP; source: cell-free synthesis in E. coli S30 extract, zinc supplemented; purified (HisTrap, TEV cleavage, ion exchange, gel filtration)"}, "B2": {"name": "BRAP (1–592) (full-length) (natural protein, human, UniProt Q7Z569 1-592, looked up)", "chain": "MSVSLVVIRLELAEHSPVPAGFGFSAAAGEMSDEEIKKTTLASAVACLEGKSPGEKVAIIHQHLGRREMTDVIIETMKSNPDELKTTVEERKSSEASPTAQRSKDHSKECINAAPDSPSKQLPDQISFFSGNPSVEIVHGIMHLYKTNKMTSLKEDVRRSAMLCILTVPAAMTSHDLMKFVAPFNEVIEQMKIIRDSTPNQYMVLIKFRAQADADSFYMTCNGRQFNSIEDDVCQLVYVERAEVLKSEDGASLPVMDLTELPKCTVCLERMDESVNGILTTLCNHSFHSQCLQRWDDTTCPVCRYCQTPEPVEENKCFECGVQENLWICLICGHIGCGRYVSRHAYKHFEETQHTYAMQLTNHRVWDYAGDNYVHRLVASKTDGKIVQYECEGDTCQEEKIDALQLEYSYLLTSQLESQRIYWENKIVRIEKDTAEEINNMKTKFKETIEKCDNLEHKLNDLLKEKQSVERKCTQLNTKVAKLTNELKEEQEMNKCLRANQVLLQNKLKEEERVLKETCDQKDLQITEIQEQLRDVMFYLETQQKINHLPAETRQEIQEGQINIAMASASSPASSGGSGKLPSRKGRSKRGK", "notes": "The construct had the tag, a TEV site and a GSSGSSG linker at the N-terminus; after TEV cleavage the linker probably stays on the protein (surmised); also called full-length BRAP; BRAP2; source: cell-free synthesis in E. coli S30 extract, zinc supplemented; purified (MBPTrap, TEV cleavage, ion exchange, gel filtration); not shown: MBP, N-terminal, cleaved"}}, "target": "T1, M1-linked di-ubiquitin chain (M1-Ub2) (human, UniProt P0CG48 1-76; P0CG48 1-76)", "T1 construct": "ubiquitin unit 1 of 2, joined head to tail (M1 linkage); from polyubiquitin-C (UBC), human; ubiquitin unit 2 of 2, joined head to tail (M1 linkage); One polypeptide of two ubiquitin units joined by a peptide bond G76-M1; also called linear di-ubiquitin; source: E. coli KRX, purified (method of Pickart and Raasi); made in the authors' laboratory", "assay": "SPR; Biacore 3000; ubiquitin monomer or ubiquitin chains amine-coupled to a CM5 chip; BRAP as analyte, serially diluted; 10 mM HEPES-NaOH pH 7.5, 150 mM NaCl, 0.005% surfactant P20; 25°C", "settings": "both partners purified"}
{"binder": "B1", "values": [{"measurement": "Kd", "value": 95.1, "unit": "nM"}]}
{"binder": "B2", "values": [{"measurement": "binding result", "value": "binds"}]}
